According to patent publication US20050148516A1:

Molecular target: mature type GnT-V
Test: cell-based or functional assay

γ-secretase (enzyme)
GnT-V activity in culture solution, PS-1 ΔE9 cells against control cells: 4 fold
ratio of the GnT-V activity in culture solution (extracellular) to that in the cell, PS-1 ΔE9 cells: 3.5
ratio of the GnT-V activity in culture solution (extracellular) to that in the cell, PS-1 ΔE9 cells against control cells: 3 fold
ratio of the GnT-V activity in culture solution (extracellular) to that in the cell, control cells without high expression of variant presenilin-1: 1.2
